Tests used:
[1] = target: human TLR4 in human whole blood (human); test: cell-based or functional assay
[2] = target: T1, soluble histidine-tagged form of human TLR4/MD2 complex (human, UniProt Q9Y6Y9 19-160); test: competitive ELISA; 15C1 reference EC50 divided by variant EC50
Description: (§1) The VH and VL cDNA sequences in their appropriate expression vectors were transfected into mammalian cells using the Fugene 6 Transfection Reagent (Roche, Basel, Switzerland). Briefly, Peak cells were cultured in 6-well plates at a concentration of 6×10⁵ cells per well in 2 mL culture media containing fetal bovine serum. The expression vectors, encoding the candidate VH and VL sequences, were co-transfected into the cells using the Fugene 6 Transfection Reagent according to manufacturer's instructions. One day following transfection, the culture media was aspirated, and 3 mL of fresh serum-free media was added to cells and cultured for three days at 37° C. Following three days culture period, the supernatant was harvested for IgG purified on protein G-Sepharose 4B fast flow columns (Sigma, St. Louis, Mo.) according to manufacturer's instructions. Briefly, supernatants from transfected cells were incubated overnight at 4° C. with ImmunoPure (G) IgG binding buffer (Pierce, Rockford Ill.). Samples were then passed over Protein G-Sepharose 4B fast flow columns and the IgG consequently purified using elution buffer. The eluted IgG fraction was then dialyzed against PBS and the IgG content quantified by absorption at 280 nm. Purity and IgG integrity were verified by SDS-PAGE. Relative binding potency of 1E11 variants was assessed by competitive ELISA. Briefly, 15C1 antibody was coated overnight in a 96-well Maxisorp plate and then blocked with PBS-BSA. The 15C1 reference antibody and affinity matured variants of 1E11 were added to the plate at a fixed concentration and a 3.5-fold serial dilution of the samples was performed. Then, soluble histidine-tagged form of human TLR4/MD2 complex was added to the plate at a fixed concentration. After incubation one hour at 37° C., the plate was washed and a solution of Penta-His-HRP antibody was distributed, this step was followed by an additional incubation time of one hour at 37° C. Finally, the plate was washed and TMB was added for colorimetric revelation, the enzymatic reaction is stopped by H₂SO₄ solution. The results were determined according to the absorbance at 450 nm. The relative binding potency was calculated by dividing the reference EC₅₀ with affinity matured variants EC₅₀ (Table 8).

[3] = target: T2, cynomolgus monkey TLR4 expressed on stably transfected CHO-K1 cells (cynomolgus monkey, UniProt Q9TSP2 24-826 (Papio anubis entry)); test: summary grade (species binding potential); assay not given
T2 construct: Transfected alone; also called CHO cells expressing the cynomolgus monkey TLR4
T2 chain: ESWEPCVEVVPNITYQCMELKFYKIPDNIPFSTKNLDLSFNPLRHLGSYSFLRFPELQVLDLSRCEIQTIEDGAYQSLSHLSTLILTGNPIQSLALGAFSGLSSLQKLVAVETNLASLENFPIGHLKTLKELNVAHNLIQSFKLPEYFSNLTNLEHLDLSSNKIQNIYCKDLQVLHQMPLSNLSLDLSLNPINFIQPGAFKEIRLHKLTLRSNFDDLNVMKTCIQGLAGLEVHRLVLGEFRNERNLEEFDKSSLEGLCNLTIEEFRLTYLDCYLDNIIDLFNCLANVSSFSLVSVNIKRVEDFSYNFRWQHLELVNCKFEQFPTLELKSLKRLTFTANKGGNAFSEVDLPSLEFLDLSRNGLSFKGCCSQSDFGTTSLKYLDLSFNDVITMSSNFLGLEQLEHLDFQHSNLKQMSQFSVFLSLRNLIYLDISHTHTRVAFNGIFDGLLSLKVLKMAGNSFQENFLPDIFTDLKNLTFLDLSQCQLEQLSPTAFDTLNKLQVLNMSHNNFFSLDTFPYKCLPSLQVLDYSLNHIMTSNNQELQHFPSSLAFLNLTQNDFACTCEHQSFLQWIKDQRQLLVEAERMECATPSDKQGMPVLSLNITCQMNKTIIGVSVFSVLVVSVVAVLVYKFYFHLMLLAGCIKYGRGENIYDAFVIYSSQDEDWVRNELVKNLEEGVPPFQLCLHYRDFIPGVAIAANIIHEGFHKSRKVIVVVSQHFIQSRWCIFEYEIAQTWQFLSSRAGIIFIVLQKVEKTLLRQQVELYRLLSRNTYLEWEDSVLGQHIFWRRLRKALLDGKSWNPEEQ

[4] = target: T1, soluble histidine-tagged form of human …; test: competitive ELISA, as retold in Example 9 (Table 8 prints 39 for this clone)
Description: Briefly, supernatants from transfected cells were incubated overnight at 4° C. with ImmunoPure (G) IgG binding buffer (Pierce, Rockford Ill.). Samples were then passed over Protein G-Sepharose 4B fast flow columns and the IgG consequently purified using elution buffer. The eluted IgG fraction was then dialyzed against PBS and the IgG content quantified by absorption at 280 nm. Purity and IgG integrity were verified by SDS-PAGE. Relative binding potency of 1E11 variants was assessed by competitive ELISA. Briefly, 15C1 antibody was coated overnight in a 96-well Maxisorp plate and then blocked with PBS-BSA. The 15C1 reference antibody and affinity matured variants of 1E11 were added to the plate at a fixed concentration and a 3.5-fold serial dilution of the samples was performed. Then, soluble histidine-tagged form of human TLR4/MD2 complex was added to the plate at a fixed concentration. After incubation one hour at 37° C., the plate was washed and a solution of Penta-His-HRP antibody was distributed, this step was followed by an additional incubation time of one hour at 37° C. Finally, the plate was washed and TMB was added for colorimetric revelation, the enzymatic reaction is stopped by H₂SO₄ solution. The results were determined according to the absorbance at 450 nm. The relative binding potency was calculated by dividing the reference EC₅₀ with affinity matured variants EC₅₀ (Table 8). […]

[5] = target: T1, soluble histidine-tagged form of human …; test: competitive ELISA; coated 15C1 as competitor, soluble His-tagged human TLR4/MD2, Penta-His-HRP
Description: as §1

[6] = target: T2, cynomolgus monkey TLR4 expressed on …; test: flow cytometry; purified IgG on CHO cells expressing cynomolgus TLR4
Description: 10⁵ CHO cells or CHO cells expressing the cynomolgus monkey TLR4 were incubated in phosphate-buffered saline, 2% bovine serum albumin with different concentrations of purified antibodies selected by FMAT (1A1, 1A6, 1B12, 1C7, 1C10, 1C12, 1D10, 1E11, 1G12) with 15C1 as control. Cells were washed in phosphate-buffered saline, 2% bovine serum albumin and incubated in Alexa Fluor® 647 goat anti human IgG (H+L) (1:200; Invitrogen). Cells were analyzed using a FACS calibur cytometer (BD Biosciences).

[7] = target: T1, soluble histidine-tagged form of human …; test: competitive ELISA; lower end of the range, tied to 1E11.C4 by Table 8 (2.5 there)
Description: The VH and VL cDNA sequences in their appropriate expression vectors were transfected into mammalian cells using the Fugene 6 Transfection Reagent (Roche, Basel, Switzerland). Briefly, Peak cells were cultured in 6-well plates at a concentration of 6×10⁵ cells per well in 2 mL culture media containing fetal bovine serum. The expression vectors, encoding the candidate VH and VL sequences, were co-transfected into the cells using the Fugene 6 Transfection Reagent according to manufacturer's instructions. One day following transfection, the culture media was aspirated, and 3 mL of fresh serum-free media was added to cells and cultured for three days at 37° C. Following three days culture period, the supernatant was harvested for IgG purified on protein G-Sepharose 4B fast flow columns (Sigma, St. Louis, Mo.) according to manufacturer's instructions. Briefly, supernatants from transfected cells were incubated overnight at 4° C. with ImmunoPure (G) IgG binding buffer (Pierce, Rockford Ill.). […] The eluted IgG fraction was then dialyzed against PBS and the IgG content quantified by absorption at 280 nm. […] Relative binding potency of 1E11 variants was assessed by competitive ELISA. […] The results were determined according to the absorbance at 450 nm. The relative binding potency was calculated by dividing the reference EC₅₀ with affinity matured variants EC₅₀ (Table 8).

T1 sequence (Q9Y6Y9 19-160, one chain of several): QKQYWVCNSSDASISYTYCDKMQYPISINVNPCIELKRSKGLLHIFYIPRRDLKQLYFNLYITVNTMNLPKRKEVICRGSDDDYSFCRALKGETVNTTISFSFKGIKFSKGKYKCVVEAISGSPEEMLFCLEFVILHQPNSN

B1: 1E11.C2E3 antibody (IgG1) (antibody, V domains shown)
VH: QVQLQESGPGLVKPSDTLSLTCAVSGYPIRFGYSWHWIRQPPGKGLEWMGYIHYSGYTDFNPSLKTRITISRDTSKNQFSLKLSSVTAVDTAVYYCARKDSGNYFPYWGQGTLVTVSS
VL: EIVLTQSPDFQSVTPKEKVTITCRASQSISDHLHWYQQKPDQSPKLLIKYASHAISGVPSRFSGSGSGTDFTLTINSLEAEDAATYYCQQGYDFPLTFGGGTKVEIK
B1 was tested. Which “IC50, inhibition of IL-6 production in human whole blood assay” value [1] did it give?
Its value is 0.05 µg/mL.

What about the “fold better than 15C1 at blocking human TLR4 (human whole blood assay)” value [1] of the same binder?
The value was 5 fold.

What about the “Relative binding potency increase” value [2] of the same binder?
The value was 39 fold.

Does B1 bind [3]?
Result: binds

What about the “increase in binding potency (fold, compared to 15C1)” value [4] of the same binder?
The value was 40 fold.

And the EC50 [5]?
Its EC50 is 0.016 µg/mL.

B2: humanized anti-TLR4 antibody 15C1 (antibody, V domains shown)
VH: QVQLQESGPGLVKPSDTLSLTCAVSGYSITGGYSWHWIRQPPGKGLEWMGYIHYSGYTDFNPSLKTRITISRDTSKNQFSLKLSSVTAVDTAVYYCARKDPSDAFPYWGQGTLVTVSS
VL: EIVLTQSPDFQSVTPKEKVTITCRASQSISDHLHWYQQKPDQSPKLLIKYASHAISGVPSRFSGSGSGTDFTLTINSLEAEDAATYYCQQGHSFPLTFGGGTKVEIK
notes: also called 15C1 Mab; parental antibody 15C1
Which results are given for B2?
IC50, inhibition of IL-6 production in human whole blood assay [1]: ~0.22 µg/mL; binding result [6]: no binding; EC50 [5]: 0.63 µg/mL

B3: 1E11.C4 antibody (IgG1) (antibody, V domains shown)
VH: QVQLQESGPGLVKPSDTLSLTCAVSGFPIGQGYSWHWIRQPPGKGLEWMGYIHYSGYTDFNPSLKTRITISRDTSKNQFSLKLSSVTAVDTAVYYCARKDSGNYFPYWGQGTLVTVSS
VL: EIVLTQSPDFQSVTPKEKVTITCRASQSISDHLHWYQQKPDQSPKLLIKYASHAISGVPSRFSGSGSGTDFTLTINSLEAEDAATYYCQQGHSFPLTFGGGTKVEIK
For B3, which “Relative binding potency increase” value [2] is on record?
Its value is 2.5 fold.

Does B3 bind [3]?
Result: binds

And the “relative binding potency (fold-increase compared to 15C1)” value [7]?
The value was 3 fold.

And the EC50 [5]?
Its EC50 is 0.251 µg/mL.
